Data reported in patent US20210077638A1 (Regeneron, published 2021).
Each block holds one binder with its values, some of them ahead of it.

Key:
[1] = molecular target: T1, human MET on EBC-1, NCI-H441 and NCI-H358 cells (human, UniProt P08581 25-1390); experiment: saturation radioligand binding (antibody binding capacity) assay with 89Zr-DFO-H4H14639D on EBC-1 cells, 4 C, 45 min, gamma counting; x axis is total antibody dosed, not free
T1 construct: whole, on cells; also called Met receptor; c-Met
Procedure: (§1) This wash process was repeated two more times, before resuspending cells in 200 μL of cold buffer (10% FBS in PBS, v/v). Of the 200 μL, 180 μL from each well was collected and dispensed into flip-cap tubes, representing the cell-bound antibody. […] A calibration curve was generated from the total antibody dosed samples using counts detected vs total antibody dosed per well, T, based on the dilution series starting from the initial antibody concentration (divided by five because of sampling). The calibration curve was used to convert the bound fraction counts (multiplied by […] because of sampling) to mass (or concentration) of bound antibody, B.
(§2) The radioligand internalization was also assayed at the highest dosed concentration at 4° C. for the 45 minutes. […] Activity of cell pellets, stripping supernatants, and wash supernatants were measured using a gamma counter. The fraction internalized, I, was calculated as the ratio of activity of the cell pellet over sum of the total activity of the cell pellet, stripping supernatant and wash supernatants.
(§3) Because there are multiple binding formats for H4H14639D, the data set was fit by the Hill-Langmuir equation (equation 3). The ABC was then calculated using equation 2. Non-specific binding was determined to be a negligible component for all runs was not considered as part of the analysis. […]

[2] = molecular target: T1, human MET on EBC-1, NCI-H441 and …; experiment: saturation radioligand binding (antibody binding capacity) assay with 89Zr-DFO-H4H14639D on NCI-H441 cells, 4 C, 45 min, gamma counting; x axis is total antibody dosed, not free
Procedure: as §1, §2, §3

[3] = molecular target: MET ('target' in the SPR assay of Example 2; construct not stated) (UniProt P08581 25-932, limits assumed); experiment: SPR, Biacore 8k
MET ('target' in the SPR assay of Example 2; construct not stated), sequence (P08581 25-932 limits assumed): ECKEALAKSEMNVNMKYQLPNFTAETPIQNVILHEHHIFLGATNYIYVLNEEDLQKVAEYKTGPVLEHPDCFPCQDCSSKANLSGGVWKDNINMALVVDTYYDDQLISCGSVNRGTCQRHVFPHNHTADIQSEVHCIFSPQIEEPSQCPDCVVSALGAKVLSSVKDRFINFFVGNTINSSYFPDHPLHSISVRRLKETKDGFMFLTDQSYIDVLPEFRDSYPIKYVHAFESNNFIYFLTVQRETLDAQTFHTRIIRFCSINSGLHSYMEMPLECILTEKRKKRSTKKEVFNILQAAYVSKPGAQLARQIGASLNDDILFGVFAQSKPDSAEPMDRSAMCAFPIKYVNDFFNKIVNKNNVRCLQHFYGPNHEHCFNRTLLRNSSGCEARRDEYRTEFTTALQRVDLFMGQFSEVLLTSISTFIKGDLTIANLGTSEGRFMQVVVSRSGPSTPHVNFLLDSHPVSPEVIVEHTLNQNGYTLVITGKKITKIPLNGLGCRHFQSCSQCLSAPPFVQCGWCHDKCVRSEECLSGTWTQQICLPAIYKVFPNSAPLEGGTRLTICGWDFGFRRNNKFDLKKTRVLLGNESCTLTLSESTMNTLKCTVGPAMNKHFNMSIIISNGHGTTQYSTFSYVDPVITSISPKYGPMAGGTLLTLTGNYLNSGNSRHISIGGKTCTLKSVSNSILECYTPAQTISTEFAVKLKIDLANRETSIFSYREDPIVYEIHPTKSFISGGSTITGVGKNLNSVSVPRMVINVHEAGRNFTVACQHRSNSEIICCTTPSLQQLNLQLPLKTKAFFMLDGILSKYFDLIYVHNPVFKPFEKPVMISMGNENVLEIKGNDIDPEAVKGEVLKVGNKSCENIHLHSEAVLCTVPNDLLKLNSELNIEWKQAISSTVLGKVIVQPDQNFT

T1 sequence (P08581 25-1390): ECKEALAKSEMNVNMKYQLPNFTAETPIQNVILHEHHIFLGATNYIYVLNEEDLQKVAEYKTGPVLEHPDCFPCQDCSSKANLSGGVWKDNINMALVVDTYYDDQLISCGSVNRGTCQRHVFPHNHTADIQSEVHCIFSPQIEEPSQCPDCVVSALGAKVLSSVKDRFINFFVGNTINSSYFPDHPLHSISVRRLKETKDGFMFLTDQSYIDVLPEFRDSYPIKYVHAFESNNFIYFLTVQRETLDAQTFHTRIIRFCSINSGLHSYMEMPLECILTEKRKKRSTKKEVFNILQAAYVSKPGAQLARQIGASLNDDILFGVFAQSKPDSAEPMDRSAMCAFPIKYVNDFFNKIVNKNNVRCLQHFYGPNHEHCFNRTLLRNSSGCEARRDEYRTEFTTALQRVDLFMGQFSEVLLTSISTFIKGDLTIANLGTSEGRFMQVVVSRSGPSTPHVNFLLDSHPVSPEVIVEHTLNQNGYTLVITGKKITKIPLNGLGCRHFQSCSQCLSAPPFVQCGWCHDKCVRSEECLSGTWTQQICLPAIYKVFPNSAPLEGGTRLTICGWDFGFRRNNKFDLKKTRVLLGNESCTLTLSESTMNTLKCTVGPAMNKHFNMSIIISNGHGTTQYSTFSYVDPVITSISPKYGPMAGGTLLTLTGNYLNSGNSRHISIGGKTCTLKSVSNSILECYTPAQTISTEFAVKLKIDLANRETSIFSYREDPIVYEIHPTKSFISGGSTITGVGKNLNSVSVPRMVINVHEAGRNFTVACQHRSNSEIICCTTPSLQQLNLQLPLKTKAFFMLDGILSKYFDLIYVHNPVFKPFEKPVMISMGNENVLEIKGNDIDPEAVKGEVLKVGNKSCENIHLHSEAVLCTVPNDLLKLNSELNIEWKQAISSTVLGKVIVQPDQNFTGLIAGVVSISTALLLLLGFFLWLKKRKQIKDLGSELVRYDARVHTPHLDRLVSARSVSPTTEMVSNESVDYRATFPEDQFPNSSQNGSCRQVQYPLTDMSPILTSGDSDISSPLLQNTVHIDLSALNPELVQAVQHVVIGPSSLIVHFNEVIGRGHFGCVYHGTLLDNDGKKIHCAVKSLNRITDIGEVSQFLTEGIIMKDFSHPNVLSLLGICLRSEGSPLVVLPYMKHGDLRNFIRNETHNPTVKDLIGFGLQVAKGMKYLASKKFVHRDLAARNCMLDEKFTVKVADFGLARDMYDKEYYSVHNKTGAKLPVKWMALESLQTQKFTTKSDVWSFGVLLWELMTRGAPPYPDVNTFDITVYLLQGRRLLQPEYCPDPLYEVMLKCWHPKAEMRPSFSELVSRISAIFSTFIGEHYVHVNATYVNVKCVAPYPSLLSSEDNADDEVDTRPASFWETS

EC50 (read off the curve) [1]: ~3 nM
EC50 (read off the curve) [2]: ~2 nM
B1: 89Zr-DFO-H4H14639D (bispecific antibody, V domains shown)
VH 1: EVQLVESGGGLVQPGTSLRLSCAASGFTFDDYAMHWVRQAPGKGLEWVSGITWNSYNIDYADSVKGRFTISRDNAKNSLYLQMNSLRAEDTALYYCAKDDDYSNYVYFDYWGQGTLVTVSS
VH 2: EVQLVESGGGLVQPGGSLRLSCAASGFIVTTNYMTWLRQAPGKGLEWVSLIYSSGHTYYADSVKGRFTISRHNSKNTLYLQMDSLRAEDTAVYYCASAFAADVFDIWGQGTMVTVSS
VL: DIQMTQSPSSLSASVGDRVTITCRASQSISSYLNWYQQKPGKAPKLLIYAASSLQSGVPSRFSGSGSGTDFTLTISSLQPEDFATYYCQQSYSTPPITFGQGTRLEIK
modifications: p-SCN-Bn-DFO on primary amines (sites not given), chelating 89Zr
notes: also called DFO-Ab radioimmunoconjugate; 89Zr-DFO-MET x MET bispecific antibody conjugate

KD relative to the KD of the unconjugated bispecific antibody [3]: ≤ 10%
B2: DFO-H4H14639D immunoconjugate (DAR 1.26) (bispecific antibody, V domains shown)
VH 1: B1 VH 1
VH 2: B1 VH 2
VL: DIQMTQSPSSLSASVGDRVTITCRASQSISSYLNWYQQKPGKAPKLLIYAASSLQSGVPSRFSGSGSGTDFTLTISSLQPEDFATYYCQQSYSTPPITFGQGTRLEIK
modifications: p-SCN-Bn-DFO on primary amines, sites not stated; average DAR 1.26 per antibody
notes: also called DFO-Ab immunoconjugate; DFO-MET x MET immunoconjugate
